The results in this text go back to patent publication US20200262917A1 (Daiichi Sankyo, published 2020).

Substitutions are numbered along the chain they refer to.

Assay [1] deals with T1, FLAG-D4: domain 4 and onwards (353-525) of human LAG-3 with N-terminal FLAG tag, on cells (human, UniProt P18627 353-525).
T1 construct: Expressed on HEK293T cells from pcDNA3.1; any leader before the FLAG tag is not described; also called construct containing only domain 4
T1 sequence: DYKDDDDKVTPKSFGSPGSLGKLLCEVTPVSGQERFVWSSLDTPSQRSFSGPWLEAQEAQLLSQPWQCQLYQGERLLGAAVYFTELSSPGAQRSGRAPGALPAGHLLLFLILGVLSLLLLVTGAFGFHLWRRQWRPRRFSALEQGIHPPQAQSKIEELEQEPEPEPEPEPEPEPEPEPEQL
Briefly: flow cytometry on transfected HEK293T cells. Here is the method:
(§1) It was further confirmed by flow cytometry that the antibody produced by the hybridomas determined to be positive by the Cell-ELISA in Example 1)-3 binds to PHA (phytohemagglutinin) activated human T cells (PHA blasts), a more physiologically relevant cell type expressing LAG-3. To human PBMCs stimulated with 2 μg/mL of PHA (manufactured by Sigma-Aldrich) for three days, was added a hybridoma culture supernatant for suspension, followed by reaction at 4° C. for 30 minutes. After washing with a FACS buffer (PBS, 0.1% BSA, and 0.1% sodium azide), a secondary antibody such as an Anti-Rat IgG PE conjugate (manufactured by Jackson ImmunoResearch Laboratories, Inc.) diluted 200-fold with a FACS buffer comprising a LIVE/DEAD Fixable Dead Cell Stain Kit-near-IR fluorescent reactive dye (manufactured by Invitrogen Corp.) was added thereto for suspension, followed by standing at 4° C. for 30 minutes. After washing with a FACS buffer, the cells were resuspended in PBS containing 1 to 2% paraformaldehyde, followed by detection using a flow cytometer (Cantoll: manufactured by Becton, Dickinson and Company or FC500: manufactured by Beckman Coulter Inc.). The data was analyzed using FlowJo (manufactured by Tree Star Inc). After removal of the LIVE/DEAD Fixable Dead Cell Stain Kit-near-IR fluorescent reactive dye-positive dead cells by gating, a histogram of the fluorescence intensity of the living cells was plotted.
(§2) Each expression plasmid (cloned into pcDNA3.1) of either domain 3 and onwards (263-525) or domain 4 and onwards (353-525) of human LAG-3 with a FLAG tag sequence ([…]) added to the N terminus was introduced into HEK293T cells using Lipofectamine 2000 (manufactured by Life Technologies Corp.), and the cells were cultured for 1 day and then recovered, to investigate the binding activity of the antibodies by flow cytometry according to the method described in Example 1)-4. […]
(In flow cytometry, cells or beads pass a laser one at a time.)

Assay [2] addresses T2, FLAG-D3D4: domain 3 and onwards (263-525) of human LAG-3 with N-terminal FLAG tag, on cells (human, UniProt P18627 263-525).
T2 construct: Expressed on HEK293T cells from pcDNA3.1; any leader before the FLAG tag is not described; also called construct containing domains 3 and 4
T2 sequence: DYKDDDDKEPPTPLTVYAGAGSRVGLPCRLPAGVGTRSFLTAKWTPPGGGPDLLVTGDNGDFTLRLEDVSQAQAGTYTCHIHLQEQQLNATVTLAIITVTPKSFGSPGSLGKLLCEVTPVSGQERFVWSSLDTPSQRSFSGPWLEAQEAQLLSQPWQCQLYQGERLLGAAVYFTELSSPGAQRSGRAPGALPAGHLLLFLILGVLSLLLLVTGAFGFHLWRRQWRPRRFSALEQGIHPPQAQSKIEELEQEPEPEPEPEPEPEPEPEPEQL
Briefly: flow cytometry on transfected HEK293T cells, antibody at 10 µg/mL. The method, then:
as §1, §2

The target in assay [3] is T3, human LAG-3 (full length, expressed on cells) (human, UniProt P18627 23-525).
T3 construct: also called CD223; hLAG-3
T3 sequence: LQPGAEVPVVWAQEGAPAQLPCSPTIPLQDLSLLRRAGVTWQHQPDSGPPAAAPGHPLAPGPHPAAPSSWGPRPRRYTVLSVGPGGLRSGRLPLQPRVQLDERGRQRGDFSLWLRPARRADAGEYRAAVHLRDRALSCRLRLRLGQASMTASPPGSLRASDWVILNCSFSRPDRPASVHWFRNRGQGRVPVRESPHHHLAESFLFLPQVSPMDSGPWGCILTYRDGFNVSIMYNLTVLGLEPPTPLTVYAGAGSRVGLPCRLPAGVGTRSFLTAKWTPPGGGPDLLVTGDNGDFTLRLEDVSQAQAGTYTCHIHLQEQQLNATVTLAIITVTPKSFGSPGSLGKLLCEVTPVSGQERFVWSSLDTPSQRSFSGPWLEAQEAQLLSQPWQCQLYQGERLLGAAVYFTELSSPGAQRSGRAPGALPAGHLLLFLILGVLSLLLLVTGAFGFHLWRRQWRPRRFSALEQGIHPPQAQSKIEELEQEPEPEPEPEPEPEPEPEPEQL
Briefly: flow cytometry on PHA-activated human T cells (PHA blasts) expressing LAG-3.

Assay [4] deals with T3, human LAG-3 (full length, expressed on …). Nature of the assay: flow cytometry on human LAG-3-expressing 293T-lacZ cells. Here is the method:
The flow cytometry was performed according to the method described in Example 1)-4, but an Anti-Human IgG PE conjugate (manufactured by Jackson ImmunoResearch Laboratories, Inc.) diluted 200-fold with a FACS buffer was used as the secondary antibody.

Assay [5] has as its target T2, FLAG-D3D4: domain 3 and onwards …. Nature of the assay: same type of flow cytometry experiment using hybridoma culture supernatant.

B1: rat anti-human LAG-3 monoclonal antibody rLA225 (antibody, V domains shown)
VH: EVQLVESGGGLVQPGRSMKLSCVASGFTFSNYYMAWVRQAPTKGLEWVASISTGGGNTYYRDSVKGRFTISRDNAKSTLYLQMDSLRSEDTATYYCARPPYGYNYGWFTYWGQGTLVTVSS
VL: DIQMTQSPASLSASLGETVTIECRASEDIHNGLVWYQQKPGKSPQLLIYNANSMHTGVPSRFSGSGSGTQYSLKINSLQSEDVASYFCQQYYNYPRTFGGGTKLELKR
notes: Rat monoclonal antibody purified from hybridoma supernatant; the rat constant regions are not
With B1, the binding result in assay [1] is reported as “no binding (tested: 10 µg/mL)”; in assay [2], “binds”; in assay [3], “binds”.

B2: rat anti-human LAG-3 monoclonal antibody rLA212 (antibody, V domains shown)
VH: EVQLVESGGGLVQPGRSLKLSCAASGFTYRSYVMAWVRQAPTRGLEWVASISTGGGNTYYRDSVKGRFTISRDNAKNTLYLQMDSLRSEDTATYYCAEDMSNSGYGLFDYWGQGVMVTVSS
VL: NIVMTQSPKSMSISVGDRVTMNCKAGQNVDNNIAWYQKKPGQSPKLLIYYASNRNTGVPDRFTGGGYGTDFTLTINSVQAEDAAFYYCQRISNSPYTFGAGTELELKR
notes: as for B1
B2: the binding result in assay [1] was “no binding (tested: 10 µg/mL)”; in assay [2], “binds”; in assay [3], “binds”.

B3: humanized anti-human LAG-3 antibody hLA212_H4/L2 (antibody, human IgG1, kappa, V domains shown)
VH: B2 VH with R16G, K19R, T42G, R43K, S88A, T93V, V115T, M116L
VL: DIQMTQSPSSLSASVGDRVTITCKAGQNVDNNIAWYQQKPGQSPKLLIYYASNRNTGVPSRFSGSGYGTDFTLTISSLQPEDFATYYCQRISNSPYTFGQGTKVEIKR
modifications: defucosylated (sugar chain modification adjusted); peaks of fucose-containing H chain at or below the detection limit in mass spectrometry
notes: defucosylated form (human IgG1/kappa); also called hLA212 antibody H4/L2; low fucose form of hLA212_H3/L2
For the molecule B3, the binding result in assay [4] is reported as “binds”.

B4: rat anti-human LAG-3 monoclonal antibody rLA1264 (antibody, V domains shown)
VH: EVQLVESGGGLVQPGRSLKLSCAASGFTFSSYYMAWVRQAPTKGLEWVAYISNGGYSTYYRDSVKGRFTISRENAKSTLYLQMDSLRSEDTATYYCTITDHSGYRFTYWGQGTLVTVSS
VL: DIQMTQSPSLLSASVGDRVTLSCKASQSIYNSLAWYQQKLGEAPKLLIYDANSLQTGIPSRFSGSGSGTDFTLTISSLQPEDVATYFCQKYYSGNTFGAGTKLELKR
notes: Rat monoclonal antibody
As for B4, the binding result in assay [5] and in assay [3] was “binds” each time.

B5: rat anti-human LAG-3 monoclonal antibody rLA204 (antibody, V domains shown)
VH: EVELVESGGGLVQPGRSMKLSCAASGFTFRTYGMAWVRQAPTKGLEWVASISTGGGSTYYRDSVKGRFTISRDNAKSTLYLQMDSLRSEDTATYYCTTDLINYPGIGGFAFWGQGTLVTVSS
VL: NIVMTQSPKSMSISVGDRVTMNCKASQNVYNNIAWYQQKPGKSPKLLIYYASNRYTGVPDRFTGSGSGTDFTLTIHSVQAEDAAFYYCQRLYNSPPTFGGGTKLELKR
notes: the rat constant regions are not
Regarding B5, the binding result is “no binding (tested: 10 µg/mL)” in assay [1], “binds” in assay [2] and “binds” in assay [3].

B6: rat anti-human LAG-3 monoclonal antibody rLA869 (antibody, V domains shown)
VH: EVQLVESGGGLVQPGRSLKLSCAASGFTYRTYVMAWVRQGPTQGLEWVASISTGGVSTYYRDSVKGRFTISRDNAKNTLYLQMDSLRSEDTATYYCAKDMLNGYNSQGLFDYWGQGVMVTVSS
VL: NIVMTQSPKSMSISVGDRVTMNCRASQNVDNTIAWYQQKPGQSPKLLIYFASDRYTGVPDRFTGGGYGTDFTLTINSVQAEDAAFYYCQRIYNSPLTFGSGTKLEIRR
notes: Rat monoclonal antibody
On to B6, for which the binding result in assay [5] and in assay [3] was “binds” in each case.
